One molecule from PMC8639217, “Structure of New Binary and Ternary DNA Polymerase Complexes From Bacteriophage RB69” can be followed below.

For the data set, the target named is T1, RB69 DNA polymerase exo- (RB69pol) (Enterobacteria phage RB69, UniProt Q38087 1-903, D222A;D327A).
T1 sequence: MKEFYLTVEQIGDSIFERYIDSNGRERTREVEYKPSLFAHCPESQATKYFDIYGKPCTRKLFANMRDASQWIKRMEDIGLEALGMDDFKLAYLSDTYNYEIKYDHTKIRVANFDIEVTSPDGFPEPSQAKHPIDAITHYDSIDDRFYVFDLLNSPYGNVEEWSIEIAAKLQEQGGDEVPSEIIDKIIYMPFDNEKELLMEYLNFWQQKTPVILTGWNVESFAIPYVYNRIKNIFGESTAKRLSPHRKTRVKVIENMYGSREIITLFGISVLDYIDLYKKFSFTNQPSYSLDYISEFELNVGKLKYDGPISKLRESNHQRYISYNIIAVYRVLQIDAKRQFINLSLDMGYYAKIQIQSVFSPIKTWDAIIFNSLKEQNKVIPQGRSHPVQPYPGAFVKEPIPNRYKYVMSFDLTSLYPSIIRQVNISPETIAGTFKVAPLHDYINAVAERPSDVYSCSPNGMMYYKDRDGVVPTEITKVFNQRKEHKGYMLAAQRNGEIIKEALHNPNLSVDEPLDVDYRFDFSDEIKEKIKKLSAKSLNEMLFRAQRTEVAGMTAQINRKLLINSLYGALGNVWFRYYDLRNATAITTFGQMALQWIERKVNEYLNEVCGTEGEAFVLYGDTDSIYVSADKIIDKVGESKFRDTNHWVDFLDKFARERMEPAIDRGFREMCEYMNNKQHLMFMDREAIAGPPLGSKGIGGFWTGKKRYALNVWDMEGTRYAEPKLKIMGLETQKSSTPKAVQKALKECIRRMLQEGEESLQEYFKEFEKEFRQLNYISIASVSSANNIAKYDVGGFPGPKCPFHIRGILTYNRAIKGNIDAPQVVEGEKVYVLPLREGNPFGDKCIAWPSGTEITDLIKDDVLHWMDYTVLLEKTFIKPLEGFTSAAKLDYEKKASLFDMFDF
Briefly: X-ray crystallography (2.2 A); MolA: closed ternary complex with dUpNpp, single Ca2+ at B site; rGMP in NTD; Complex (1:1.2 protein:DNA) in 10 mM Tris-HCl pH 8.0, 50 mM NaCl, 10 mM CaCl2, 5 mM DTT, 5% glycerol, 1 mM dUpNpp, 12 h 4 C; crystals at 21 C in 50 mM Na cacodylate pH 5.0, 2-7% isopropanol, 5 mM MgCl2, 2 mM NaCl, 12 mM spermine. The note with it: protein: recombinant; tags: N-terminal His6 removed with TEV protease; 15 bp; 5' overhang 1 nt on primer, 5' overhang 4 nt on template; 1:1.

B1: primer/template (P/T) duplex (dsDNA)
DNA 1: GGAGCGGACTGCTTAC
DNA 2: TCAAGTAAGCAGTCCGCTC
For B1, the binding result is “binds”.
